# From IntAct's records for PubMed 10613896
# B1: Arf-GAP domain and FG repeat-containing protein 1 (Homo sapiens), P52594 (parent)
# chain: MAASAKRKQEEKHLKMLRDMTGLPHNRKCFDCDQRGPTYVNMTVGSFVCTSCSGSLRGLNPPHRVKSISMTTFTQQEIEFLQKHGNEVCKQIWLGLFDDRSSAIPDFRDPQKVKEFLQEKYEKKRWYVPPEQAKVVASVHASISGSSASSTSSTPEVKPLKSLLGDSAPTLHLNKGTPSQSPVVGRSQGQQQEKKQFDLLSDLGSDIFAAPAPQSTATANFANFAHFNSHAAQNSANADFANFDAFGQSSGSSNFGGFPTASHSPFQPQTTGGSAASVNANFAHFDNFPKSSSADFGTFNTSQSHQTASAVSKVSTNKAGLQTADKYAALANLDNIFSAGQGGDQGSGFGTTGKAPVGSVVSVPSQSSASSDKYAALAELDSVFSSAATSSNAYTSTSNASSNVFGTVPVVASAQTQPASSSVPAPFGATPSTNPFVAAAGPSVASSTNPFQTNARGATAATFGTASMSMPTGFGTPAPYSLPTSFSGSFQQPAFPAQAAFPQQTAFSQQPNGAGFAAFGQTKPVVTPFGQVAAAGVSSNPFMTGAPTGQFPTGSSSTNPFL
# partner: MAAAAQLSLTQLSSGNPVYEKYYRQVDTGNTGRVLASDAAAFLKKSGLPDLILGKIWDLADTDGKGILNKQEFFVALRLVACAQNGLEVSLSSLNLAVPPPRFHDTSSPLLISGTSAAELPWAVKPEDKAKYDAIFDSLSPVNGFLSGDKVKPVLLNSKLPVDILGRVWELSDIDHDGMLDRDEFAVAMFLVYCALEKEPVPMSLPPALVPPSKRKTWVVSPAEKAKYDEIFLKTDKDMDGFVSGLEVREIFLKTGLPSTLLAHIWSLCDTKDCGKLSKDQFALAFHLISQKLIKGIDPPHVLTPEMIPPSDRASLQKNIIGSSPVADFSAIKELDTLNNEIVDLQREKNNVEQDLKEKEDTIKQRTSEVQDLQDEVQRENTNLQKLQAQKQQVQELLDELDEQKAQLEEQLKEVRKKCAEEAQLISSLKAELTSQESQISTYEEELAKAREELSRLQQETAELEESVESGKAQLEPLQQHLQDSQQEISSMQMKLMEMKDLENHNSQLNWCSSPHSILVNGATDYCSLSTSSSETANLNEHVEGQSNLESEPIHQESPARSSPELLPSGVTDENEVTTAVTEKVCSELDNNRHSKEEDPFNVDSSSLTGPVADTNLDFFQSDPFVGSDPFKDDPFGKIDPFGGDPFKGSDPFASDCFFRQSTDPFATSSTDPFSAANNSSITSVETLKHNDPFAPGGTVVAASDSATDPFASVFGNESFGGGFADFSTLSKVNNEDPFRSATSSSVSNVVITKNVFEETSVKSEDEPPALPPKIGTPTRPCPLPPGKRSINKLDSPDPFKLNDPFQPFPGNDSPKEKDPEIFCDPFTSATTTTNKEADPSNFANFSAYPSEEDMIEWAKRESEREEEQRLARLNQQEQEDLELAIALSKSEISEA
# Variants of: B1
# Details: with eps15_human EPS15, P42566
row,effect of a mutation on the interaction,Variant
1,disrupting interaction,MAASAKRKQEEKHLKMLRDMTGLPHNRKCFDCDQRGPTYVNMTVGSFVCTSCSGSLRGLNPPHRVKSISMTTFTQQEIEFLQKHGNEVCKQIWLGLFDDRSSAIPDFRDPQKVKEFLQEKYEKKRWYVPPEQAKVVASVHASISGSSASSTSSTPEVKPLKSLLGDSAPTLHLNKGTPSQSPVVGRSQGQQQEKKQFDLLSDLGSDIFAAPAPQSTATANFANFAHFNSHAAQNSANADFANFDAFGQSSGSSNFGGFPTASHSPFQPQTTGGSAASVNANFAHFDNFPKSSSADFGTFNTSQSHQTASAVSKVSTNKAGLQTADKYAALANLDNIFSAGQGGDQGSGFGTTGKAPVGSVVSVPSQSSASSDKYAALAELDSVFSSAATSSNAYTSTSNASSNVFGTVPVVASAQTQPASSSVPAPFGATPSTNPVVAAAGPSVASSTNPVQTNARGATAATFGTASMSMPTGFGTPAPYSLPTSFSGSFQQPAFPAQAAFPQQTAFSQQPNGAGFAAFGQTKPVVTPFGQVAAAGVSSNPVMTGAPTGQFPTGSSSTNPVL [F436V;F451V;F542V;F561V]
